The text below walks through data of patent publication US20150266962A1 (Pfizer, published 2015).

Experiment [1] deals with T1, recombinant human IL-13 receptor alpha 2 (hIL-13-Rα2) (human, UniProt Q14627 27-343).
T1 construct: Recombinant soluble antigen coated on ELISA plates or used in Biacore; also called rec hIL-13Rα2; rhIL-13Rα2
T1 sequence (looked up): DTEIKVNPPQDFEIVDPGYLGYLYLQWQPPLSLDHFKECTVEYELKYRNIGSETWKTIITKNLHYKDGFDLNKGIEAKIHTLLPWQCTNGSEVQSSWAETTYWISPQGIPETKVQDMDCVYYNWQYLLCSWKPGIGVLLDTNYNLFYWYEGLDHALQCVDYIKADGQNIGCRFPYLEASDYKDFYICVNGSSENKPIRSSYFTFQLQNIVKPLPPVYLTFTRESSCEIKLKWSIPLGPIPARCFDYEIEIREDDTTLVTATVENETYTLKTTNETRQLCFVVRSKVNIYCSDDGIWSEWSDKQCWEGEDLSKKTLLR
As to the kind of experiment: competition ELISA on coated recombinant hIL-13-Rα2, competitor biotin-ch08. On the procedure: A competition ELISA was performed to assess whether hu08 1.0 and hu08 v1.1 compete with ch08 for IL-13-Rα2 binding. Recombinant hIL-13-Rα2 was coated onto 96-well plates at 50 ul of […] in PBS overnight at 4° C. Plates were then blocked and washed following standard ELISA protocol. A 3-fold serially diluted ch08, hu08 1.0 and hu08 v1.1, and negative control ch07 (2× final concentration) were mixed with biotinylated ch08 (2×EC₅₀). 50 μl of the antibody and biotin-ch08 mixture were added to the plate and incubated for 1 hour at room temperature. The amount of biotin-ch08 bound was detected by HRP conjugated streptavidin.
On the technique in general: In an ELISA, binding on a coated surface is turned into a signal by an enzyme label.

In experiment [2] the target is T2, recombinant mouse IL-13-Rα2 (mIL-13-Rα2) (mouse, UniProt O88786 22-334, limits assumed).
T2 construct: also called murine mIL-13Rα2
T2 sequence (looked up): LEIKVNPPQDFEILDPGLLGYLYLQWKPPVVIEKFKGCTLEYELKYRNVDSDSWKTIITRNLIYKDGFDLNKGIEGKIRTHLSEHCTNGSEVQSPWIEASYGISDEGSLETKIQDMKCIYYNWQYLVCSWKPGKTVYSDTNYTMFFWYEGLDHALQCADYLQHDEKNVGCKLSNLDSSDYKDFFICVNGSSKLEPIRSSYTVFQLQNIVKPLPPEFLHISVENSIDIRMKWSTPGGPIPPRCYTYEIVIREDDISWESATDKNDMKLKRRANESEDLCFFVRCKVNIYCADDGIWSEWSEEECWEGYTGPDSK
As to the kind of experiment: direct ELISA on coated recombinant mIL-13-Rα2, serially diluted purified ch08. On the procedure: (§1) The binding of hu07 and hu08 to mouse IL-13-Rα2 was evaluated by direct ELISA. The identity between human and mouse IL-13-Rα2 at the amino acid level is approximately 64%. Recombinant mIL-13-Rα2 or hIL-13-Rα2 (as positive control) was coated onto a 96-well plate. Purified chimeric ch07 and ch08 were serially diluted and added to the antigen coated plate. The bound antibodies were detected by HRP conjugated goat anti-human IgGFc specific secondary antibody.

Experiment [3] deals with T1, recombinant human IL-13 receptor alpha …. Put plainly: competition ELISA on plate (recombinant IL-13-Rα2), competitor biotinylated ch07.
In experiment [4] the target is T2, recombinant mouse IL-13-Rα2 (mIL-13-Rα2). Put plainly: direct ELISA on coated recombinant mIL-13-Rα2, serially diluted purified ch07. On the procedure: as §1
For experiment [5], the target named is T1, recombinant human IL-13 receptor alpha …. Put plainly: direct ELISA on rhIL-13Rα2, purified protein (given as ED50).
For experiment [6] the target is unchanged. Put plainly: competition ELISA on plate, competitor biotinylated ch07, purified protein.
Experiment [7] has the same target. As to the kind of experiment: competition ELISA on plate-coated recombinant hIL-13-Rα2; competitor: constant amount of biotin-ch07, detected with streptavidin-HRP. On the procedure: A competition ELISA was performed to examine whether ch07 and ch08 have distinct binding epitopes. Prior to the competition ELISA experiment, ch07 and ch08 were biotinylated. The EC50 of the biotinylated ch07 (biotin-ch07) and ch08 (biotin-ch08) were determined by direct standard ELISA. For the competition ELISA, recombinant hIL-13-Rα2 was coated onto 96-well plates at 50 ul of 2 μg/mL in PBS overnight at 4° C. The plates were then blocked and washed following a standard ELISA protocol. 3-fold serially diluted ch07 and ch08 (2× final concentration) were mixed with a constant amount of biotin-ch07 (FIG. 2A) or biotin-ch08 (FIG. 2B), respectively and were added to the plate and incubated for 1 hour at room temperature. The amount of biotinylated chimeric antibody bound was detected by HRP conjugated streptavidin at 1:5000 for 1 hour. […] Similar results are obtained when the same set of antibodies were used to compete with biotin-ch08 (FIG. 2B).

The target is the same in experiment [8]. Put plainly: standard ELISA on hIL-13-Rα2 (given as ED50).
Experiment [9] has the same target. As to the kind of experiment: SPR Biacore, pH 7.4. On the procedure:
To assess the binding kinetics of the ch07 and ch08 antibodies, SPR (Surface Plasmon Resonance) experiments were conducted on a Biacore® T100 or T200 instrument using a Biacore® human Fab Capture Kit (GE Healthcare). All data was analyzed using the Biacore® T100 evaluation software version 2.0 with a 1:1 Langmuir binding model.
Kₐ, Kd and KD are shown on Table 5. […] At pH6.0, ch07 and ch08 binding affinity to hIL-13-Rα2 are in the low nM range. Dissociation rates of ch08 and ch07 are very similar. Higher KDs at pH6.0 than pH7.4 are due to a slower association rate.

Experiment [10] shares this target. As to the kind of experiment: direct ELISA on rhIL-13Rα2 (given as ED50).

B1: chimeric antibody ch08 (antibody, human IgG1, V domains shown)
VH: EVQLVESGGDLVRPGGSLQLSCAASGFTFSRNGMSWVRQTPDRRLEWVATVSSGGSYIYYADSVKGRFTISRDNARNTLYLQMSSLKSEDTAMYYCARQGTTALATRFFDVWGAGTTVTVSS
VL: DIVMTQSHKFISTSVGDRVSITCKASQDVGTAVAWYQQIPGQSPKLLIYSASYRSTGIPDRFTGSGSGTDFSFIISSVQAEDLALYYCQHHYSAPWTFGGGTTLDIK
notes: also called ch08Hc + Lc; chimeric antibody 08
As a reminder, the IC50 is the midpoint of a concentration-inhibition curve. Turning to B1, the IC50 in experiment [1] amounted to 1.98 nM. The binding result in experiment [2] is on record as “no binding”.

B2: chimeric antibody ch07 (antibody, human IgG1, V domains shown)
VH: QVQLKESGPGLVAPSQSLSINCTVSGFSLTKYGVHWIRQSPGKGLEWLGVKWAGGSTDYNSALMSRLTISKDNNKSQVFLKMNSLQSDDSAMYYCARDHRDAMDYWGQGTSVTVSS
VL: QVVLTQSPAIMSASPGERVTMTCTASLSVSSTYLHWYHQKPGSSPKLWIYSTSNLASGVPARFSGSGSGTSYSLTISSMEAEDAATYYCHQYHRSPLTFGSGTKLELK
notes: also called chimeric antibody 07; biotin-ch07 (biotinylated form)
What is called EC50 is the concentration needed to bring the measured effect to its halfway point. As to B2, the IC50 in experiment [3] and in experiment [6] was 2.21 nM each time. For the same molecule, the binding result in [4] was “no binding”. Moreover, the 50% effective concentration (EC50) is 0.39 nM in experiment [5], 0.1 nM in [8] and 0.217 nM in [10]. For the same molecule, the “IC50 (read off the curve)” value in [7] was ~2 nM. Also, the “fold slower dissociation than ch08” value in experiment [9] was ~2 fold.
